From US20260146091A1 (FUNDACI N PARA LA INVESTIGACI N M DICA APLICADA, published 2026)

T1: biotinylated mPD-1-Fc (BPS Bioscience) (mouse; human, UniProt Q02242 25-169, biotinylated (site not stated))
T1 construct: extracellular domain; Bought from BPS Bioscience; also called mouse PD-1
T1 sequence (looked up): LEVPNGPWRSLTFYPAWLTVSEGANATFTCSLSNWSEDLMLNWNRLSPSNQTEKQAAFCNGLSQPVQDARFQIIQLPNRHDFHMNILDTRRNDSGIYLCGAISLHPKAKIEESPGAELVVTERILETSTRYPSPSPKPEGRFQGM

B1: Nb6p-Fc (Nb6p fused to mouse IgG2a Fc domain including hinge) (Fc fusion)
chain: AEVQLVESGGGLVQAGGSLRLSCAAAGRSFNSNAMGWVRQAPGKEREIVAVISATGSYTYYEDSVKGRFTISRDNSKNTVSLQMSSLSSEDTAVYYCAGSRTAALTTIMTLFNYWGQGTQVTVSSPGPRGPTIKPCPPCKCPAPNLLGGPSVFIFPPKIKDVLMISLSPIVTCVVVDVSEDDPDVQISWFVNNVEVHTAQTQTHREDYNSTLRVVSALPIQHQDWMSGKEFKCKVNNKDLPAPIERTISKPKGSVRAPQVYVLPPPEEEMTKKQVTLTCMVTDFMPEDIYVEWTNNGKTELNYKNTEPVLDSDGSYFMYSKLRVEKKNWVERNSYSCSVVHEGLHNHHTTKSFSRTPGK
notes: Fc homodimer, purified on protein A from supernatants of BHK-21 cells electroporated with SFV-Nb6p-Fc RNA; also called dimeric Nb6p
B2: Nb11-Fc (Nb11 fused to mouse IgG1 Fc domain including hinge) (Fc fusion)
chain: AQVQLVQSGGGSVQAGDSLRLSCAVSGHPDSSYSMAWFRQAPGKERELVALISWSGAITHYSDSVKDRFTISRDNAKNEMYLQMDSLKPEDTAVYFCQADDPTSELNQYWGQGTQVTVSSGCKPCICTVPEVSSVFIFPPKPKDVLTITLTPKVTCVVVDISKDDPEVQFSWFVDDVEVHTAQTQPREEQFNSTFRSVSELPIMHQDWLNGKEFKCRVNSAAFPAPIEKTISKTKGRPKAPQVYTIPPPKEQMAKDKVSLTCMITDFFPEDITVEWQWNGQPAENYKNTQPIMDTDGSYFVYSKLNVQKSNWEAGNTFTCSVLHEGLHNHHTEKSLSHSPGK
notes: Fc homodimer, concentrated from supernatants of BHK-21 cells electroporated with SFV-Nb11-Fc RNA; also called dimeric Nb11

Key:
[1] = molecular target: T2, biotinylated hPD-L1 fused to human IgG Fc (BPS Bioscience) (human, UniProt Q9NZQ7 19-238, biotinylated (site not stated)); test: competitive ELISA, human PD-1/PD-L1
T2 construct: extracellular domain; Bought from BPS Bioscience; also called human PD-L1
Method: (§1) The ability of nanobodies (Nbs) to inhibit the binding of PD-1 with PD-L1 was evaluated by competitive ELISA. For human molecules, plates were coated with 0.5 μg/mL hPD-1-Fc (R&D, Minneapolis, MN) in PBS o/n at 4° C. […] For mouse molecules, a similar protocol was followed. […] The signal of wells incubated without Nbs or antibodies were considered 100% of PD-1/PD-L1 binding.

[2] = molecular target: T3, mPD-L1-Fc (mouse PD-L1 ectodomain fused to human IgG1 Fc, BioLegend) (mouse; human, UniProt Q9EP73 19-239); test: competitive ELISA, mouse PD-1/PD-L1
T3 construct: extracellular domain; Bought from BioLegend; not shown: human IgG1 Fc domain
Method: as §1

[3] = molecular target: T2, biotinylated hPD-L1 fused to human IgG …; test: competitive ELISA, human PD-1/PD-L1; the reference value of envafolimab (5.25 nM) is from the literature
[4] = molecular target: T4, hPD-1-Fc (human PD-1 ectodomain fused to human IgG1 Fc, R&D) (human, UniProt Q15116 25-170); test: competitive ELISA, human PD-1/PD-L1
T4 construct: extracellular domain; Bought from R&D; not shown: human IgG1 Fc domain
Method: as §1

[5] = molecular target: T1, biotinylated mPD-1-Fc (BPS Bioscience); test: competitive ELISA, mouse PD-1/PD-L1
Method: as §1

T2 sequence (Q9NZQ7 19-238): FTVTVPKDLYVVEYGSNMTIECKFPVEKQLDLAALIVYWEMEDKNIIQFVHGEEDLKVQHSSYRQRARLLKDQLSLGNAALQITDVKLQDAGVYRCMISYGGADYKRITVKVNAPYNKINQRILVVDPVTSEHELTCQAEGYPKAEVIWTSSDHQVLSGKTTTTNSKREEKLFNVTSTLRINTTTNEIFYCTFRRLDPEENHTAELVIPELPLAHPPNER
T4 sequence (Q15116 25-170): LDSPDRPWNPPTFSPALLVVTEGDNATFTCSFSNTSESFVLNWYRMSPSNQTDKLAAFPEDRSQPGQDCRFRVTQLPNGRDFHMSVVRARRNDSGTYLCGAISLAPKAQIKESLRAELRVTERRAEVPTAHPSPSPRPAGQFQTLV
T3 sequence (Q9EP73 19-239): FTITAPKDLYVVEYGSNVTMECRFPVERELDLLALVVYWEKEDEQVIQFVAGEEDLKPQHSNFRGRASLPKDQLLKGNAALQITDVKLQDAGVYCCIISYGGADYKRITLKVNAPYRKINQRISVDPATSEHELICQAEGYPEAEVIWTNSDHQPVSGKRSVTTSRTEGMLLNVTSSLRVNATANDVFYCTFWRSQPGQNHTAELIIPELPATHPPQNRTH

Row | Binder | fold IC50 reduction against monomeric Nb6p [1] [fold] | fold IC50 reduction of the Fc homodimer against monomeric Nb6p [1] [fold] | fold IC50 reduction against monomeric Nb6p [2] [fold] | fold IC50 reduction of the Fc homodimer against monomeric Nb6p [2] [fold] | fold by which the literature IC50 of envafolimab is higher than that of Nb6p-Fc [3] [fold] | fold IC50 reduction against monomeric Nb11 [4] [fold] | fold IC50 reduction against nivolumab [4] [fold] | fold lower IC50 than nivolumab [4] [fold] | fold IC50 reduction against clone RMPI-14 [5] [fold] | fold IC50 reduction against monomeric Nb11 [5] [fold]
1 | B1 | ~7 | ~8 | ~7 | ~8 | ~10 | – | – | – | – | –
2 | B2 | – | – | – | – | – | ~40 | 10 | 8.6 | 700 | ~40
